Experiment [1] deals with T1, IL-9-His recombinant protein (UniProt P15248 19-144).
T1 construct: range 19-144; used as coating antigen in the ELISAs; also called IL9 (19-144)-His; not shown: His tag, C-terminal by the vector name
As to the kind of experiment: ELISA on coated IL-9-His, OD450; unit taken from the x axis, the table prints none.

A further experiment has as its target T2, IL-9 antigen protein (Homo sapiens, UniProt P15248).
T2 construct: pcDNA3.4-IL9 (19-144)-His (P15248) and pLVX-Fc2-IL9 (19-144)-Puro; made in house; host or cells: 293F cells (transient transfection)
As to the kind of experiment: ForteBio (BLI) affinity detection. It is filed as binding. As to conditions: antibody immobilized on Protein A sensor, antigen 7.81-125 nM. The procedure:
The affinity of a humanized antibody was detected by ForteBio (BLI). The chimeric (as a control) and humanized antibodies were immobilized with a Protein A sensor (SARTORIUS, Cat #18-5010) at an immobilization height of about 1 nm. An antigen protein sample was serially diluted with PBS to 125 nM, 62.5 nM, 31.25 nM, 15.625 nM, 7.81 nM, and 0 nM. An affinity detection procedure was as follows: equilibration for 60 s, binding for 180 s, and dissociation for 180 s.
Background: In BLI a coated tip is dipped into the sample, and binding shifts an interference pattern.

The target in experiment [2] is T1, IL-9-His recombinant protein. As to the kind of experiment: BLI (ForteBio), antibody on Protein A sensor, antigen 7.81-125 nM in solution.
Description: The affinity of a humanized antibody was detected by ForteBio (BLI). […] An affinity detection procedure was as follows: equilibration for 60 s, binding for 180 s, and dissociation for 180 s.
A further experiment has as its target T3, IL-9 (Homo sapiens, UniProt P15248).
T3 construct: pcDNA3.4-IL9 (19-144)-His (P15248); His (C); made in house; host or cells: 293F cells (transient transfection)
As to the kind of experiment: ELISA binding of humanized antibodies to the target antigen. As to conditions: ELISA of culture supernatant of 293F cells, control chimeric antibody CA1. The protocol:
ELISA was conducted according to a standard protocol to determine the affinity of a purified antibody for the IL-9-His recombinant protein. In short, the IL-9-His recombinant protein was diluted with sterile PBS and added at 100 μL/well to a 96-well plate. The plate was incubated at 4° C. overnight and then blocked with a blocking buffer. 100 μL of a purified anti-IL-9 antibody serially diluted was added to the plate, and the plate was incubated for 1 h at room temperature. PBS was added to a control well. The plate was washed with PBST 3 times. Then 100 μL of horseradish peroxidase (HRP)-labeled anti-mouse IgG H&L (BIODRAGON, CAT #BF03001) was added, and the plate was incubated for 1 h at room temperature. The plate was washed with PBST 3 times. Then a chromogenic reaction was conducted with a 3,3′,5,5′-tetramethylbenzidine (TMB) chromogenic solution at room temperature. An OD value in each well was read by a microplate reader. Data was processed with PRISM GraphPad, and curves were plotted. The EC50 value for each candidate antibody was calculated.
Humanized antibody expression vectors carrying a designed heavy-chain or light-chain sequence were transiently transfected into 293F cells in pairs, and then a resulting culture supernatant was collected. According to a standard protocol (with reference to part 5.1 in Example 1), with a human-mouse chimeric antibody CA1 constructed with VH and VL of the original murine antibody as a control, the binding of a humanized antibody to a target antigen was detected by ELISA. The method for ELISA was the same as described in 5.1 of Example 1. […] In the follow-up experiments, the four combinations of VH1−VL2, VH1−VL4, VH2−VL4, and VH3−VL4 (hu.CA1 to hu.CA4) were taken as examples for antibody purification and function testing. […]

The target in experiment [3] is T4, biotin-conjugated IL-9-Fc (Biotin-IL-9-Fc) (UniProt P15248 19-144, biotin-conjugated (sites not given)).
T4 construct: range 19-144; also called Fc-IL-9 recombinant protein; Fc-IL-9; not shown: Fc tag (Fc2 in the vector name pLVX-Fc2-IL9 (19-144)-Puro)
T4 sequence (P15248 19-144 limits assumed, form in doubt): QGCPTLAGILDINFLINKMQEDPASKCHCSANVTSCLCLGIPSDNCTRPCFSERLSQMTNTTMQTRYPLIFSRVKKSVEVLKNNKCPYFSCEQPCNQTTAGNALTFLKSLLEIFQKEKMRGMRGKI
Put plainly: flow cytometry blocking assay (IL9-IL9R blocking determination): serially diluted antibody against the binding of Biotin-IL-9-Fc to 293-IL-9R cells (IL-9R), MFI; unit taken from the x axis, the table prints none. (A flow cytometer gives signals particle by particle.)

Residue numbers refer to the chain shown, from its start.

In general, EC50 refers to the concentration at which the effect is half-maximal. The Kd is the free concentration of one partner at which half of the binding sites on the other are occupied at equilibrium, for simple one-to-one binding. In general, koff refers to a measure of how fast the partners let go of each other. Broadly, the kon is a measure of how fast the partners come together.

T1 sequence (P15248 19-144 limits assumed, form in doubt): as above
T2 sequence (P15248 19-144): as the sequence (P15248 19-144 limits assumed, form in doubt) above
T3 sequence (P15248 19-144): as the sequence (P15248 19-144 limits assumed, form in doubt) above

B1: humanized antibody VH1-VL4 (hu.CA2) (antibody, V domains shown)
VH: EVQLKQSGAEVMKPGASVKVSCKATGYTFTGYWIEWVRLAPGHGLEWMGEILPGSGSTNYNQKFQGRVTFTADTSINTAYMELSRLRSDDTAIYYCARRTYYYGIPEDYWGQGTLVTVSS
VL: DIVMTQSPKFLSASVGDRVTITCKASQNVGTNVAWHQQKPGQSPKPLIYSASYRYSGVPSRFTGSGSGTDFTLTISNLQPEDFAEYFCQQYNSYPLTFGAGTKLEIK
notes: IgG1 / kappa by the vectors pcDNA3.4-IgG1 and pcDNA3.4-IgKc; also called humanized VH1-VL4 antibody
With B1, the EC50 in experiment [1] stood at 0.0127 µg/mL. In the experiment with IL-9 antigen protein, this molecule showed a Koff of 0.002206 s⁻¹ and a Kon of 1.165e+06 M⁻¹ s⁻¹. In experiment [2], the Kd was found to be 1.89 nM, the koff was 0.00221 s⁻¹ and the kon was 1.16e+06 M⁻¹ s⁻¹. In the experiment with IL-9, the “binding to IL-9” value is given as “bind to IL-9 with high affinity”. Further, the EC50 in experiment [3] worked out at 8.18 µg/mL.

B2: CA1: human-mouse chimeric IgG1/kappa antibody with VH and VL of murine 38-D8-C7-G9 (antibody, V domains shown)
VH: EVQLKQSGAELMKPGASVKLSCKATGYTFTGYWIEWVKLRPGHGLEWIGEILPGSGSTNYNEEFKGKATFTADTSSNTAYMQLNSLTTEDSAIYYCARRTYYYGIPEDYWGQGTSVTVSS
VL: B1 VL with P8Q, L11M, A13T, T20S, I21V, S60D, L78V, P80S, F83L, I106L
In the experiment with IL-9 antigen protein, B2 had a Koff of 0.0009336 s⁻¹ and a Kon of 2.13e+06 M⁻¹ s⁻¹.

B3: humanized antibody VH2-VL4 (hu.CA3) (antibody, V domains shown)
VH: B1 VH with K5V, H43Q, I76T, R85S, D89E
VL: B1 VL
notes: IgG1 / kappa by the vectors pcDNA3.4-IgG1 and pcDNA3.4-IgKc
Take B3: the EC50 in experiment [1] turned out to be 0.0329 µg/mL; in experiment [3] it was 11.7 µg/mL.

B4: humanized antibody VH3-VL4 (hu.CA4) (antibody, V domains shown)
VH: B1 VH with K5V, H43Q, F64L, I76T, S84R, R85S
VL: B1 VL
notes: as for B3
Turning to B4, the EC50 in experiment [1] stood at 0.0323 µg/mL; in experiment [3], 11.3 µg/mL.

The record behind these values is patent publication US20250122278A1, “ANTI-INTERLEUKIN-9 ANTIBODY AND USE THEREOF” (GUANGDONG KEGUANDA PHARMACEUTICAL TECHNOLOGY CO., LTD., priority 2022, published 2025).
